Laboratory results as given in patent US20240101647A1 (VIB VZW, published 2024).
Changes are numbered by the printed parent chain.

B1: VHH3.42 (VHH)
VHH: QVQLQESGGGLVQPGGSLRLSCAASGSAVSINDMGWYRQPPGKQRELVATITKTGSTNYADSVKGRFTISRDNAKNAVYLEMNSLKPEDTATYYCNAWLPYGMGPDYYGMELWGKGTQVTVSS
B2: VHH3.117 (VHH)
VHH: B1 VHH with S27K, N32S, V63A, K64Q, A74T, N76S, N83K, T92V
B3: VHH3.92 (VHH)
VHH: B1 VHH with S27K, N32S, S56N, V63A, K64Q, N76S, N83A, T92V

Legend:
BSA = target: T1, BSA (UniProt P02769 25-607); assay: ELISA, coated BSA
T1 construct: also called Bovine Serum Albumin
T1 sequence (P02769 25-607 limits assumed): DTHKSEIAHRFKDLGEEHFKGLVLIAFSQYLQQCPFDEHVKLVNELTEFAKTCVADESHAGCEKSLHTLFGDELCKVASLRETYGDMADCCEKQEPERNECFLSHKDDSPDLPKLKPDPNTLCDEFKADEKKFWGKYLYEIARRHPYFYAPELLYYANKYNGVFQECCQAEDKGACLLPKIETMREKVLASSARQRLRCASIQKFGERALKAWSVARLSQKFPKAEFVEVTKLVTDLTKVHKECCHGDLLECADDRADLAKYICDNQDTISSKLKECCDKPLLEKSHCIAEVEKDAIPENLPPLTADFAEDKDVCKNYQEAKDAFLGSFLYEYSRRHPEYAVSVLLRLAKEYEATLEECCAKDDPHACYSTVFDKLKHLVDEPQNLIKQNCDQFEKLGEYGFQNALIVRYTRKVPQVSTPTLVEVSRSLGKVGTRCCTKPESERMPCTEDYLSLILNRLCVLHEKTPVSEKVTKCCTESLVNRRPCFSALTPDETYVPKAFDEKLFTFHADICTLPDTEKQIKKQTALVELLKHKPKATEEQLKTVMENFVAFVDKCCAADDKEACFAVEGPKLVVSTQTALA

[1] = target: SARS-CoV-2 spike protein on VSV-delG pseudovirus particles or on cells (SARS-CoV-2, UniProt P0DTC2 14-1273); assay: cell-based or functional assay

Row | Binder | binding result (BSA) | neutralization relative to VHH72_h1_S56A [1] [fold]
1 | B1 | no binding | ~6
2 | B2 | no binding | ~6
3 | B3 | – | ~6
